Patent publication US20260167734A1

Molecular target: human FasL, cell surface (membrane-bound) (human) (UniProt P48023)
Test: cell-based or functional assay

Chain of human FasL, cell surface (membrane-bound) (human) (P48023 whole entry): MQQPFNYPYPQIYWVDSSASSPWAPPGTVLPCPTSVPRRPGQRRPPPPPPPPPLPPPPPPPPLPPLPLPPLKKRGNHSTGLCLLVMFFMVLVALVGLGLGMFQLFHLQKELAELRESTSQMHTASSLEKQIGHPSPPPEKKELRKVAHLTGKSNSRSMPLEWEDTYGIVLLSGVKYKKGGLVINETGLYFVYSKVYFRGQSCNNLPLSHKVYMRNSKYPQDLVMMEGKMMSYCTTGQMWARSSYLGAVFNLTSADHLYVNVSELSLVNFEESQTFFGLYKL

inhibition of FasL-mediated apoptosis of Jurkat cells (annexin-V externalization, flow cytometry), IC50: 102 nM
Substance: soluble CD95-Fc (sCD95-Fc) fusion protein (from UniProt P25445 26-172) (Fc fusion)
